Patent publication US20160024513, “MAIZE STRESS RELATED TRANSCRIPTION FACTOR 18 AND USES THEREOF” (PIONEER HI-BRED INTERNATIONAL INC., published 2016)

B1: RAB17 promoter DRE fragment (dsDNA)
DNA 1: TAAATTCAGCCTGACCGACCGCCTGCATTGAATA
DNA 2: TATTCAATGCAGGCGGTCGGTCAGGCTGAATTTA
B2: RAB17 DRE mutant fragment (dsDNA)
DNA 1: TAAATTCAGCCTGTTTTTTCGCCTGCATTGAATA
DNA 2: TATTCAATGCAGGCGAAAAAACAGGCTGAATTTA

Legend:
Settings in all cases: tags: 20 aa N-terminal tag incl; 6xHis (pET28)
[1] = target: ZmSRTF18-del (Zea mays); test: EMSA; no DTT; did not appear to bind
Sequence of ZmSRTF18-del (Zea mays) (chain, as listed by the source): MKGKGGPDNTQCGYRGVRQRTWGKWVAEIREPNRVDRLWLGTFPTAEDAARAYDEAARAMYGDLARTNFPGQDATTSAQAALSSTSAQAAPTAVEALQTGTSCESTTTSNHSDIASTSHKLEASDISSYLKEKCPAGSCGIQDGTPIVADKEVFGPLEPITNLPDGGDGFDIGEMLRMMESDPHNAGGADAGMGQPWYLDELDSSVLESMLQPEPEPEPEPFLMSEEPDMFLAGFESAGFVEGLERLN
Protocol: (§1) In gel-shift assays, also known as electrophoretic mobility shift assays (EMSA), DNA with bound protein will traverse the gel more slowly than DNA without bound protein. Thus, gel shift assays indicate whether a protein binds to a specific DNA fragment. The gel shift assays of FIG. 6 were performed using the Molecular Probes™ EMSA Kit (E33075), which provides background information, materials, and methods for gel shift experiments. The assays were done in the presence or in the absence of DTT (dithiothreitol), as it is not certain which condition most accurately reflects the in vivo condition. DNA was stained with SYBR® Green according to the manufacturer's protocol.

[2] = target: ZmSRTF18 (SPL VAR4) (Zea mays); test: EMSA; with or without DTT; strong and specific also with 300 mM KCl and salmon DNA
Sequence of ZmSRTF18 (SPL VAR4) (Zea mays) (chain, as listed by the source): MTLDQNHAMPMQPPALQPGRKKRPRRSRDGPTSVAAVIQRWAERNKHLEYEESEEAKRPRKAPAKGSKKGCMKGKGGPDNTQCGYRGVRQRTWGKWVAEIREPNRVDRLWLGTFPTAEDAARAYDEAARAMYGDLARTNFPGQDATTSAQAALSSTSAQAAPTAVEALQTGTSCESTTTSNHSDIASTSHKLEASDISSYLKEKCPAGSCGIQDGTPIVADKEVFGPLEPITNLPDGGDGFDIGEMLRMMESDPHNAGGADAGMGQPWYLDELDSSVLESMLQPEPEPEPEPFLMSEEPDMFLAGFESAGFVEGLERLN
Protocol: as §1
(§2) To determine whether DNA binding was specific, and to examine binding of the less severely truncated proteins ZmSRTF18-del (ALT5) (SEQ ID NO: 26) and ZmSRTF18-del (ALT6) (SEQ ID NO: 27), further gel shift experiments were performed in the presence of DTT with the same 34 bp DNA fragment, or with the corresponding fragment that had the DRE element ACCGAC mutated to TTTTTT. Conditions were also optimized to reduce nonspecific binding by adding 300 mM KCl and sheared salmon DNA.

[3] = target: ZmSRTF18 (SPL VAR4) (C71S) (Zea mays, C71S); test: as above
Sequence of ZmSRTF18 (SPL VAR4) (C71S) (Zea mays, C71S) (chain, as listed by the source C71S | C71S C71S): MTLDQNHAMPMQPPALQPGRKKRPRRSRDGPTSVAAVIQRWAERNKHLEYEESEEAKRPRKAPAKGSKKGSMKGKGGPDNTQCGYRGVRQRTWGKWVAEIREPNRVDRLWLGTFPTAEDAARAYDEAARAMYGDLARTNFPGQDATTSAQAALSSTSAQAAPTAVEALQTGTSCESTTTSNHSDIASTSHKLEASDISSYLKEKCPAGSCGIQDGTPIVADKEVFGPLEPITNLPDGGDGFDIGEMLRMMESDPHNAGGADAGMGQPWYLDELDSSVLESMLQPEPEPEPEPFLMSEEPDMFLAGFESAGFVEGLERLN
Protocol: as §1, §2

[4] = target: ZmSRTF18-del (ALT2) (Zea mays); test: EMSA; with or without DTT; obvious gel shift
Sequence of ZmSRTF18-del (ALT2) (Zea mays) (chain, as listed by the source): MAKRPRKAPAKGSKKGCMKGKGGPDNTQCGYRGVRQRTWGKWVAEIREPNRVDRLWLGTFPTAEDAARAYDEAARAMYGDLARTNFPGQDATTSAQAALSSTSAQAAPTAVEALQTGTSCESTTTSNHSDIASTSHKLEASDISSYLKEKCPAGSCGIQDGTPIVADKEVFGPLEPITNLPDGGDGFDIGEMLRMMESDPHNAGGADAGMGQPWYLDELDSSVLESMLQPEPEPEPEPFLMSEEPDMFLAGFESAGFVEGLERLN
Protocol: as §1, §2

[5] = target: ZmSRTF18-del (ALT6) (Zea mays); test: EMSA; DTT, 300 mM KCl, sheared salmon DNA; strong specific binding
Sequence of ZmSRTF18-del (ALT6) (Zea mays) (chain, as listed by the source): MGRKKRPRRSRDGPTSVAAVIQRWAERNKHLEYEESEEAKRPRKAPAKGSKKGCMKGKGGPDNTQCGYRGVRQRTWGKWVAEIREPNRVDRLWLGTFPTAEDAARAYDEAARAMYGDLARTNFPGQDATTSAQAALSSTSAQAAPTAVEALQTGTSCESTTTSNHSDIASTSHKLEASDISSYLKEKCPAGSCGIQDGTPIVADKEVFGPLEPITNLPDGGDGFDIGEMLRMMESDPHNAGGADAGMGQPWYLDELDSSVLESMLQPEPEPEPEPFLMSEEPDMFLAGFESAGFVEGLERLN
Protocol: as §1, §2

[6] = target: ZmSRTF18-del (ALT6) (Zea mays); test: EMSA; DTT, 300 mM KCl, salmon DNA; binding to DRE stated specific versus this mutant
Protocol: as §1, §2

[7] = target: ZmSRTF18 (SPL VAR4) (Zea mays); test: as above
Protocol: as §1, §2

[8] = target: ZmSRTF18 (SPL VAR4) (C71S) (Zea mays, C71S); test: as above
Protocol: as §1, §2

| Binder | binding result [1] | binding result [2] | binding result [3] | binding result [4] | binding result [5] | binding result [6] | binding result [7] | binding result [8] |
| --- | --- | --- | --- | --- | --- | --- | --- | --- |
| B1 | no binding | binds | binds | binds | binds | – | – | – |
| B2 | – | – | – | – | – | no binding | no binding | no binding |
